Experimental findings from US20200247855A1 (published 2020) are described below.

Assay [1] deals with T1, CXCL8_HUMAN (human, UniProt P10145 28-99). The experiment in a line: BLI. Background: In BLI a coated tip is dipped into the sample, and binding shifts an interference pattern.
Assay [2] addresses T2, CXCL1_HUMAN (human, UniProt P09341 35-107). The experiment in a line: BLI.
Assay [3] deals with T3, CXCL3_HUMAN (human, UniProt P19876 35-107). Briefly: BLI.
Assay [4] deals with T4, CCL18_HUMAN (human, UniProt P55774 21-89).
T4 chain: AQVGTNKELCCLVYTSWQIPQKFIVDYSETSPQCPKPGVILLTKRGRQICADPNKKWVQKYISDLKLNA
Briefly: BLI.

For assay [5], the target named is T5, CCL21_HUMAN (human, UniProt O00585 24-134).
T5 chain: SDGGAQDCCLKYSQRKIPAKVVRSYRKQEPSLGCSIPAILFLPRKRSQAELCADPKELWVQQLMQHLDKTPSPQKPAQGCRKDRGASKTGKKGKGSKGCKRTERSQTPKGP
The experiment in a line: BLI.

Assay [6] deals with T6, CCL1_HUMAN (human, UniProt P22362 24-96).
T6 chain: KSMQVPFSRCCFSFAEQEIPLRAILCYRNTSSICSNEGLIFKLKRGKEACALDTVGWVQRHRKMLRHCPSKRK
The experiment in a line: BLI.

Assay [7] has as its target T7, CCL23_HUMAN (human, UniProt P55773 22-120).
T7 chain: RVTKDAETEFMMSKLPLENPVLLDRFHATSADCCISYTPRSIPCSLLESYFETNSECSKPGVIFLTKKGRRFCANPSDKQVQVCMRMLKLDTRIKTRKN
The experiment in a line: BLI.

Assay [8] has as its target CCL2_HUMAN (human, UniProt P13500 24-99). Briefly: BLI.
Assay [9] addresses CCL11_HUMAN (human, UniProt P51671 24-97). Briefly: BLI.
The target in assay [10] is T8, CCL16_HUMAN (human, UniProt O15467 24-120).
T8 chain: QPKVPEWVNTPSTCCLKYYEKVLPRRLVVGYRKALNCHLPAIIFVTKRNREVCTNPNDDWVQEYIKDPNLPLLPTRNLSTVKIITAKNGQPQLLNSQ
Briefly: BLI.

For assay [11], the target named is T9, CCL3_HUMAN (human, UniProt P10147 24-92).
T9 chain: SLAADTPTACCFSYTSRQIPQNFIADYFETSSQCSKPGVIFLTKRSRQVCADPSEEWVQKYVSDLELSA
Briefly: BLI.

Assay [12] addresses T10, CCL14_HUMAN (human, UniProt Q16627 22-93).
T10 chain: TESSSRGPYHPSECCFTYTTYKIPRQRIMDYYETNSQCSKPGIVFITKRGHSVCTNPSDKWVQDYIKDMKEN
The experiment in a line: BLI.

Assay [13] deals with T11, CCL22_HUMAN (human, UniProt O00626 25-93).
T11 chain: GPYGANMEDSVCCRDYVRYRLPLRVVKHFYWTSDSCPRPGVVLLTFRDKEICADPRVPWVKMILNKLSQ
Briefly: BLI.

The target of assay [14] is T12, CCL24_HUMAN (human, UniProt O00175 27-104).
T12 chain: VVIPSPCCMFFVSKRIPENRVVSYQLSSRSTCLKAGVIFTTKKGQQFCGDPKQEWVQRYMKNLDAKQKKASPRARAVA
Briefly: BLI.

Assay [15] concerns the target T13, CCL15_HUMAN (human, UniProt Q16663 22-113).
T13 chain: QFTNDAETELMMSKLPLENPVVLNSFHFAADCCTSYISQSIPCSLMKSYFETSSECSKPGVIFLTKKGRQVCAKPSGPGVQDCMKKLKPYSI
The experiment in a line: BLI.

The target of assay [16] is T14, CCL3L1_HUMAN (human, UniProt P16619 24-93).
T14 chain: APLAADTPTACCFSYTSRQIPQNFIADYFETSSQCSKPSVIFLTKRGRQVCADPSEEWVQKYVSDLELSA
Briefly: BLI.

In assay [17] the target is CCL13_HUMAN (human, UniProt Q99616 24-98). The experiment in a line: BLI.
The target of assay [18] is T15, CCL27_HUMAN (human, UniProt Q9Y4X3 25-112).
T15 chain: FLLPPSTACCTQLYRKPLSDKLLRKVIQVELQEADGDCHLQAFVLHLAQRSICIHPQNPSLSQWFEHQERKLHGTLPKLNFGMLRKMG
The experiment in a line: BLI.

Assay [19] has as its target T16, CCL17_HUMAN (human, UniProt Q92583 24-94).
T16 chain: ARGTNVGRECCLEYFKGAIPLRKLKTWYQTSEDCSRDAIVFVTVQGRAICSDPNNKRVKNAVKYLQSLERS
The experiment in a line: BLI.

Assay [20] deals with CCL7_HUMAN (human, UniProt P80098 24-99). Briefly: BLI.
Assay [21] addresses T17, CCL5_HUMAN (human, UniProt P13501 24-91).
T17 chain: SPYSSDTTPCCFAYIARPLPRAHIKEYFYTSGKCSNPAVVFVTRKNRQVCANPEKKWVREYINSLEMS
The experiment in a line: BLI.

The target in assay [22] is T18, CCL8_HUMAN (human, UniProt P80075 24-99).
T18 chain: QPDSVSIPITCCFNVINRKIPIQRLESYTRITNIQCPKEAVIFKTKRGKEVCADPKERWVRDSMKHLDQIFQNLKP
The experiment in a line: BLI.

The target in assay [23] is T19, CCL4_HUMAN (human, UniProt P13236 24-92).
T19 chain: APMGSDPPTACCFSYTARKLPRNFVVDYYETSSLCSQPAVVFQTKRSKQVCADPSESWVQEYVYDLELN
Briefly: BLI.

The target of assay [24] is T20, CCL4L1_HUMAN (human, UniProt Q8NHW4 24-92).
T20 chain: T19 chain with S47G
The experiment in a line: BLI.

In assay [25] the target is CXCL5. Briefly: BLI.
For assay [26], the target named is CXCL2. The experiment in a line: BLI.
Assay [27] deals with CXCL5. The experiment in a line: BLI. The source holds these as a separate data set.
For assay [28], the target named is CXCL2. The experiment in a line: BLI. This is another data set of the same source.
The target of assay [29] is CXCL6. The experiment in a line: BLI.
Assay [30] addresses CXCL4. Briefly: BLI.
The target in assay [31] is CXCL10_HUMAN (human, UniProt P02778 22-98). The experiment in a line: BLI.
Assay [32] concerns the target T21, CXCL11_HUMAN (human, UniProt O14625 22-94).
T21 chain: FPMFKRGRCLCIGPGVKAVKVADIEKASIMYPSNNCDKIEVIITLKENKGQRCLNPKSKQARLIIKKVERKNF
Briefly: BLI.

In assay [33] the target is T22, CXCL7_HUMAN (human, UniProt P02775 59-128).
T22 chain: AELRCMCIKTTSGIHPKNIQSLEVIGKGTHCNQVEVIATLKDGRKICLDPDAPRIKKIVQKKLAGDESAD
Briefly: BLI.

Assay [34] deals with T2, CXCL1_HUMAN. Briefly: BLI. The source holds these as a separate data set.
Assay [35] addresses T3, CXCL3_HUMAN. The experiment in a line: BLI. This is another data set of the same source.
Assay [36] addresses CXCL6_HUMAN. Briefly: BLI.
Assay [37] addresses CXCL5_HUMAN. The experiment in a line: BLI.
Assay [38] addresses CXCL2_HUMAN. The experiment in a line: BLI.
Assay [39] concerns the target T1, CXCL8_HUMAN. Briefly: BLI. The source holds these as a separate data set.
Assay [40] deals with T3, CXCL3_HUMAN. Briefly: BLI; previously obtained data.

Where a chain is given by its changes, count along the chain named. Names and notes keep the numbering of the source. Like-named read-outs stand apart in the source and are kept apart here.

T1 sequence (P10145 28-99): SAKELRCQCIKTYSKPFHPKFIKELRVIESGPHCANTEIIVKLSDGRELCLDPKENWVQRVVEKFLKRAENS
T3 sequence (P19876 35-107): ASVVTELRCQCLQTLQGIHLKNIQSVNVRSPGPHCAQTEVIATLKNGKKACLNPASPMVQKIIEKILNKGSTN
T2 sequence (P09341 35-107): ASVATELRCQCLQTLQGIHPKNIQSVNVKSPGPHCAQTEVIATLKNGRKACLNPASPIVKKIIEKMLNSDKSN
Sequence of CXCL10_HUMAN (P02778 22-98): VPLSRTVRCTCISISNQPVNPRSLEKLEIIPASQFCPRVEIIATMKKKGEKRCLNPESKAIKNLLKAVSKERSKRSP
Sequence of CCL7_HUMAN (P80098 24-99): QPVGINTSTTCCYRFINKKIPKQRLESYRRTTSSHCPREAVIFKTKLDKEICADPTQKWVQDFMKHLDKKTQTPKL
Sequence of CCL2_HUMAN (P13500 24-99): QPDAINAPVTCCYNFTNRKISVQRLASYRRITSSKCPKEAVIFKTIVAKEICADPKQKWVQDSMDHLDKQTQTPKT
Sequence of CCL11_HUMAN (P51671 24-97): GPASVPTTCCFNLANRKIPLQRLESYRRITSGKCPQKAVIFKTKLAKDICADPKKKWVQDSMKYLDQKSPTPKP
Sequence of CCL13_HUMAN (Q99616 24-98): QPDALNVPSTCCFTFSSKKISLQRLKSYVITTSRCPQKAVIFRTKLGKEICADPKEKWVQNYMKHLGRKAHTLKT

B1: P991:G4S:P1156 (designed binder)
chain: ENGEGTTQPDYDNSTDYYNYEDFKCTCPAPHLNNTNGTVMKPIGCYYTCNVTRCTAPDTYPCYNLTEHQAKNLTTSPTTLCAVGNCDHGICVPNGTKELCFKAPNLEEGGGGSADDDNELFTVQYCGMNCTKDEGGTWTGCTGKKEGCKCYHESGKNYGLCLSTEYTDFSQYGNPSDSEIEAAKPKRSDTLSH
Usually Kd stands for a measure of binding affinity in units of concentration. A lower Kd goes with a tighter complex. Take B1: the Kd in [1] came out at 3.56 nM; in assay [2] it was 5.08 nM; in assay [3], 89.9 nM; in [4], 0.143 nM; in assay [5], 18.2 nM; in assay [6] it was 7.66 nM. The Kd in assay [7] was 5.13 nM; in assay [8] it was 24.8 nM; in [9], 1.39 nM; in assay [10], 0.636 nM; in assay [11], 2.22 nM; in [12], 0.835 nM. Further, the dissociation constant Kd was found to be 2.36 nM in assay [13]; 3.18 nM in assay [14]; 127 nM in assay [15]; 2.91 nM in assay [16]; 0.176 nM in [17]; 42.6 nM in [18]. Besides, the Kd in assay [19] came out at 5.8 nM; in [20], 0.287 nM; in assay [21] it was 0.947 nM; in [22] it was 7.89 nM; in [23] it was 3.54 nM; in assay [24], 1.24 nM. In addition, the Kd in [25] is 52.7 nM; in [26], 48.9 nM.

B2: P1126_AMBCA (other)
chain: KPQILQRTDKSTDSEWDPQTCPETCIPSKNITCSDGCVCVKLGEEEEGTCFNMTGVDWLGSPSDD
For the molecule B2, the Kd in [27] is 12.1 nM; in assay [28], 5.11 nM; in assay [29], 9.12 nM; in assay [30] it was 393 nM; in assay [31], 7.9 nM; in [32], 394 nM. In addition, the Kd in [33] was found to be 6.05 nM; in assay [34], 10.5 nM; in assay [35] it was 13.3 nM.

B3: P1156_IXORI (other)
chain: ADDDNELFTVQYCGMNCTKDEGGTWTGCTGKKEGCKCYHESGKNYGLCLSTEYTDFSQYGNPSDSEIEAAKPKRSDTLSH
With B3, the Kd was 4.84 nM in [1]; 6.53 nM in assay [2]; 117 nM in assay [36]; 71.9 nM in assay [37]; 17 nM in assay [38]; 29.8 nM in assay [27]. For the same molecule, the Kd came out at 50.6 nM in [28]; 62.7 nM in [29]; 2.9 nM in [39]; 5.8 nM in assay [34]; 70.4 nM in [35]; 70.4 nM in assay [40].

B4: P1142_AMBCA (other)
chain: KPQILQRTDHSTDSDWDPQMCPETCNPSKNISCSSECLCVTLGGGDETGTCFNMSGVDWLGHAQASDGHNDG
For B4, the Kd in assay [27] was found to be 9.81 nM; in assay [28] it was 2.14 nM; in assay [29], 6.27 nM; in assay [30] it was 381 nM; in assay [31], 7.46 nM; in [32], 322 nM. Besides, the Kd in [33] is 1.83 nM; in assay [34], 4.61 nM; in assay [35], 5.65 nM.
